The text below walks through data of patent CN112142841A (JIANGSU QUANXIN BIOMEDICAL CO LTD, dated 2020).

Assay [1] addresses T1, 人IL-17A蛋白 (Example 4, sandwich ELISA) (human, UniProt Q16552 24-155).
T1 construct: also called 重组人IL-17A蛋白标准品; recombinant human IL-17A protein standard
T1 sequence (looked up): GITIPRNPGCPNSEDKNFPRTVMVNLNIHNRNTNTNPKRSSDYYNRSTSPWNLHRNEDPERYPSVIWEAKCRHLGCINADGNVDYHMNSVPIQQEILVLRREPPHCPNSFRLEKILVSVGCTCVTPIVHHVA
Kind of assay: sandwich ELISA: QX002N coated, human IL-17A 0-10 ng/ml, biotin-labelled second antibody for detection, SA-HRP. On the technique in general: ELISA stands for enzyme-linked immunosorbent assay.

In assay [2] the target is T2, 人IL-17A (His-tag，购自Novoprotein) (human, UniProt Q16552 24-155).
T2 construct: Bought His-tagged protein, detected with an HRP-labelled anti-His antibody; also called human IL-17A; hIL-17A; not shown: His-tag
T2 sequence (looked up): T1 sequence (looked up)
Briefly: ELISA: antibody coated, serially diluted His-tagged human IL-17A, anti-His-HRP detection.

B1: 抗人IL-17A单克隆抗体 (anti-human IL-17A monoclonal antibody) (antibody, V domains shown)
VH: QSLEESGGDLVQPEGSLALTCKASGFDLSSYYYMCWVRQAPGKGLEWIACIHTGNGYPYYANWAKGRFTISKTSSTTVTLQLTSLTVADTATYFCARPVGGYDYAMDLWGPGTLVTVSS
VL: AYDMTQTPASVSAAVGGTVTINCQASEDISSQLSWYQQRPGQPPKLLIYKASTLASGVPSRFRGSGSGTQFTLTISGVQCADAATYYCQQSASYFNVANTFGGGTEVVVKG
notes: also called 第二抗体; 检测抗体
On to B1, for which the binding result in assay [1] and in assay [2] was “binds” throughout.
